Laboratory results from the supplement of paper PMC7125110.
± gives the standard error. For part of these data: This sample holds only a part of the variants without activity.

B1: glmS ribozyme (parent)
chain: AUAAAAGCGCCAGAACUACAGAAAUGUAGUUGACGAGGAGGAGGUUUAUCGAAUUUUCGGCGGAUGCCUCCAAA

Key:
Conditions in all cases: with glucosamine-6-phosphate
glucosamine-6-phosphate [1] = variants of: B1; assay: kcat; higher = faster cleavage; RNA array
In short: (§1)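 Sequenced MiSeq chips were the platform: E. coli RNA polymerase transcribed barcoded ribozyme variants on them in situ, and a hybridised Cy3 probe tracked these at 37 °C. After glucosamine-6-phosphate (40 μM to 10 mM) in HEPES/KCl/Mg(OAc)2 buffer was flowed in, tiles were imaged over ~14 h. Signals normalised to baseline and to non-cleaving reference variants were reduced to per-tile medians and fit to one- or two-exponential decays to obtain kobs. kcat and KM were derived through weighted Michaelis–Menten fits across concentrations.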

glucosamine-6-phosphate [2] = variants of: B1; assay: KM; higher = weaker cofactor use; RNA array
In short: as §1

glucosamine-6-phosphate [3] = variants of: B1; assay: self-cleavage kobs at 640 uM GlcN6P; higher = faster cleavage; RNA array
In short: as §1

glucosamine-6-phosphate [4] = variants of: B1; assay: self-cleavage kobs at 2500 uM GlcN6P; higher = faster cleavage; RNA array
In short: as §1

glucosamine-6-phosphate [5] = variants of: B1; assay: self-cleavage kobs at 10000 uM GlcN6P; higher = faster cleavage; RNA array
In short: as §1

glucosamine-6-phosphate [6] = variants of: B1; assay: self-cleavage kobs at 160 uM GlcN6P; higher = faster cleavage; RNA array
In short: as §1

glucosamine-6-phosphate [7] = variants of: B1; assay: self-cleavage kobs at 40 uM GlcN6P; higher = faster cleavage; RNA array
In short: as §1

Variant | kcat (glucosamine-6-phosphate [1]) [s⁻¹] | KM (glucosamine-6-phosphate [2]) [µM] | self-cleavage kobs at 640 uM GlcN6P (glucosamine-6-phosphate [3]) [s⁻¹] | self-cleavage kobs at 2500 uM GlcN6P (glucosamine-6-phosphate [4]) [s⁻¹] | self-cleavage kobs at 10000 uM GlcN6P (glucosamine-6-phosphate [5]) [s⁻¹] | self-cleavage kobs at 160 uM GlcN6P (glucosamine-6-phosphate [6]) [s⁻¹] | self-cleavage kobs at 40 uM GlcN6P (glucosamine-6-phosphate [7]) [s⁻¹]
A39C U46A | 0.000341 ± 6.3e-05 | 2880 ± 980 | 5.57e-05 ± 1e-05 | 0.000209 ± 3.4e-05 | 0.000249 ± 3.6e-05 | – | –
U57G C71U | 6.07e-05 ± 3e-05 | – | 3.26e-05 ± 1.2e-05 | 1.65e-05 ± 8e-06 | 4.47e-05 ± 6.6e-06 | – | –
A14U U57A | 6.85e-05 ± 3.9e-06 | 2120 ± 440 | – | 3.51e-05 ± 1e-05 | 5.69e-05 ± 7.6e-06 | – | –
G60U C67A C68U | < 1e-05 | – | < 1e-05 | – | < 1e-05 | – | –
A12C A42U | 0.000217 ± 1.2e-05 | 1230 ± 230 | 6.67e-05 ± 1.1e-05 | 0.00016 ± 2.1e-05 | 0.000192 ± 1.2e-05 | 3.19e-05 ± 1e-05 | –
G29A G41C | 3.14e-05 ± 5.6e-06 | – | – | 2.97e-05 ± 1.2e-05 | – | – | –
A52C C68A | 2.96e-05 ± 7.8e-06 | – | 3.82e-05 ± 1.2e-05 | 3.05e-05 ± 1.2e-05 | – | – | –
C16A U45G | 0.000271 ± 2.9e-06 | 2200 ± 54 | 6.15e-05 ± 1.2e-05 | 0.000144 ± 3.4e-05 | 0.000222 ± 2.7e-05 | – | –
A36C U55A | < 1e-05 | – | – | – | – | < 1e-05 | –
A6G C70A | < 1e-05 | – | – | – | < 1e-05 | – | < 1e-05
G29U G60A | < 1e-05 | – | < 1e-05 | – | < 1e-05 | < 1e-05 | < 1e-05
G37A U46A | 0.000136 ± 4.3e-06 | 2840 ± 210 | 2.37e-05 ± 7.5e-06 | 6.45e-05 ± 7.8e-06 | 0.000105 ± 1.1e-05 | – | < 1e-05
A14U G43U | < 1e-05 | – | – | – | – | – | < 1e-05
A39C A52U | 8.87e-05 ± 2.8e-06 | 2380 ± 210 | 1.71e-05 ± 7.8e-06 | 4.62e-05 ± 6.1e-06 | 7.13e-05 ± 7.2e-06 | – | < 1e-05
A14U G38A | < 1e-05 | – | – | – | < 1e-05 | – | –
A64G G66U | 0.00159 ± 7.8e-05 | 1210 ± 120 | 0.000588 ± 0.00016 | 0.00102 ± 0.00034 | 0.00143 ± 0.0003 | 0.000178 ± 5.7e-05 | –
U57C C70U | 0.00016 ± 1.8e-05 | 741 ± 210 | 7.23e-05 ± 9.1e-06 | 0.000137 ± 1.3e-05 | 0.000124 ± 2.4e-05 | 2.63e-05 ± 8.9e-06 | –
G63C U65G | < 1e-05 | – | – | – | < 1e-05 | < 1e-05 | < 1e-05

Variant | kcat (glucosamine-6-phosphate [1]) [s⁻¹] | KM (glucosamine-6-phosphate [2]) [µM] | self-cleavage kobs at 640 uM GlcN6P (glucosamine-6-phosphate [3]) [s⁻¹] | self-cleavage kobs at 2500 uM GlcN6P (glucosamine-6-phosphate [4]) [s⁻¹] | self-cleavage kobs at 10000 uM GlcN6P (glucosamine-6-phosphate [5]) [s⁻¹] | self-cleavage kobs at 160 uM GlcN6P (glucosamine-6-phosphate [6]) [s⁻¹] | self-cleavage kobs at 40 uM GlcN6P (glucosamine-6-phosphate [7]) [s⁻¹]
U49G C58A | 3.25e-05 ± 8.4e-06 | 6150 ± 2700 | – | – | – | – | < 1e-05
C11U C58G | 3.35e-05 ± 2.6e-07 | 188 ± 18 | – | 3.13e-05 ± 1e-05 | 3.28e-05 ± 7.7e-06 | – | –
G7A U69A | 1.56e-05 ± 3.6e-06 | – | – | – | – | – | –
G29A U30C | 3.24e-05 ± 8.4e-06 | – | – | 4.91e-05 ± 1.5e-05 | 2.58e-05 ± 1e-05 | – | –
A39G C68A | 2.73e-05 ± 9.4e-06 | – | – | – | – | – | –
A12G U56C | 0.000482 ± 5.2e-05 | 9850 ± 1600 | 3.18e-05 ± 1.4e-05 | 9.57e-05 ± 1.7e-05 | 0.000244 ± 3.4e-05 | – | –
U45G U56G | 0.00528 ± 0.00075 | 2490 ± 520 | 0.0011 ± 0.00017 | 0.0033 ± 0.00052 | 0.00403 ± 0.00047 | 0.000245 ± 6.5e-05 | 8.78e-05 ± 1.3e-05
G32C U56G | 5.69e-05 ± 1.6e-06 | 663 ± 110 | 2.63e-05 ± 1.3e-05 | 4.76e-05 ± 1.1e-05 | 5.27e-05 ± 7.2e-06 | – | < 1e-05
C16G U57A C68U | 4.17e-05 ± 9.1e-06 | – | – | 5.4e-05 ± 2.1e-05 | – | – | –
U56C A64G | 0.000167 ± 1.1e-05 | 2690 ± 560 | – | 8.52e-05 ± 2.8e-05 | 0.000131 ± 2e-05 | – | –
G13C U54G | 0.000222 ± 4.5e-06 | 6040 ± 230 | – | 6.51e-05 ± 1e-05 | 0.000138 ± 1.7e-05 | – | –
U31C U47C | 0.000503 ± 6.2e-05 | 2160 ± 430 | 0.000111 ± 2e-05 | 0.000269 ± 5.7e-05 | 0.00042 ± 0.00011 | – | –
A42U U55A | 0.000213 ± 6.1e-06 | 1260 ± 86 | 7.19e-05 ± 1.1e-05 | 0.000143 ± 2.6e-05 | 0.000188 ± 2.2e-05 | – | –
G40A G43C | < 1e-05 | – | < 1e-05 | – | – | – | –
A14C A33C | < 1e-05 | – | < 1e-05 | – | – | – | < 1e-05
G44A U54C | 0.00159 ± 0.00015 | 8260 ± 990 | 0.000114 ± 1.7e-05 | 0.000372 ± 6.7e-05 | 0.000869 ± 0.00017 | – | –
U31A U69G | 5.26e-05 ± 7e-06 | – | 6.47e-05 ± 1.5e-05 | 5.62e-05 ± 1.2e-05 | 4.26e-05 ± 9.9e-06 | 4.7e-05 ± 1.3e-05 | –
U30C A39U | 0.000228 ± 2.1e-05 | 1730 ± 380 | 6.71e-05 ± 1e-05 | 0.000123 ± 1.7e-05 | 0.000203 ± 2.2e-05 | – | –
